In this assay the target is porcine milk butyrylcholinesterase (Sus scrofa (domestic pig), UniProt A0A4X1VEU5). The experiment in a line: ELISA.
porcine milk butyrylcholinesterase, sequence (P32752 whole entry): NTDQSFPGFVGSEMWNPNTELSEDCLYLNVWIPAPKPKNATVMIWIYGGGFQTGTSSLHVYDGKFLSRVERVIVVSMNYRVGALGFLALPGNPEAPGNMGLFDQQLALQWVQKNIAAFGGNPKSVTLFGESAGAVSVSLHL

B1: mouse anti-HuBChE monoclonal antibody B2 18-5 (antibody, V domains shown)
VH: QVQLQQSGAELVRPGSSVKISCKASGYAFSDYWMNWVKQRPGQGLEWIGQIYPGDGDTYYNGKFKGKATLTADKSSSTAYMQLSSLISEDSAVYFCARSRPLLDYSMHYWGQGASVTVSS
VL: DIQMTQSSSSFSVSLGDRVTITCKTSEDIYNRLAWYQQKPGNAPRLLISGATSLETGVPSRFSGSGSGEDFTLSITSLQTEDVATYYCQQYWSTPYTFGGGTKLEIK
In the case of B1, the binding result is listed as “no binding”.

For the origin of these results see publication PMC6086383 (Archives of biochemistry and biophysics, 2018).
